Sequences and labels used below:
B4: human basigin, entire ectodomain (receptor)
chain: EPGTVFTTVEDLGSKILLTCSLNDSATEVTGHRWLKGGVVLKEDALPGQKTEFKVDSDDQWGEYSCVFLPEPMGTANIQLHGPPRVKAVKSSEHINEGETAMLVCKSESVPPVTDWAWYKITDSEDKALMNGSESRFFVSSSQGRSELHIENLNMEADPGQYRCNGTSSKGSDQAIITLRVRSHLAAL
modifications: enzymatically monobiotinylated
notes: also called HsBSG; BSG; source: HEK293E, transient transfection, secreted, enzymatically monobiotinylated

What all share (assay): SPR
Common to all, as to settings: both partners purified

Assay [1] addresses P. reichenowi RH5 (P. reichenowi, UniProt B4X6H6 1-535).
For assay [2], the target named is P. gaboni RH5 (P. gaboni).
The target in assay [3] is T1, gorilla basigin, entire ectodomain (gorilla, enzymatically monobiotinylated).
T1 construct: also called gorilla BSG; source: HEK293E, transient transfection, secreted, enzymatically monobiotinylated

Assay [4] has as its target B4.
Assay [5] has as its target T2, P. falciparum P113, biotinylated bait (P. falciparum, UniProt Q8ILP3 23-945, biotin (enzymatic monobiotinylation; site not stated)).
T2 construct: source: HEK293E, transient transfection, secreted; enzymatically monobiotinylated bait
T2 sequence: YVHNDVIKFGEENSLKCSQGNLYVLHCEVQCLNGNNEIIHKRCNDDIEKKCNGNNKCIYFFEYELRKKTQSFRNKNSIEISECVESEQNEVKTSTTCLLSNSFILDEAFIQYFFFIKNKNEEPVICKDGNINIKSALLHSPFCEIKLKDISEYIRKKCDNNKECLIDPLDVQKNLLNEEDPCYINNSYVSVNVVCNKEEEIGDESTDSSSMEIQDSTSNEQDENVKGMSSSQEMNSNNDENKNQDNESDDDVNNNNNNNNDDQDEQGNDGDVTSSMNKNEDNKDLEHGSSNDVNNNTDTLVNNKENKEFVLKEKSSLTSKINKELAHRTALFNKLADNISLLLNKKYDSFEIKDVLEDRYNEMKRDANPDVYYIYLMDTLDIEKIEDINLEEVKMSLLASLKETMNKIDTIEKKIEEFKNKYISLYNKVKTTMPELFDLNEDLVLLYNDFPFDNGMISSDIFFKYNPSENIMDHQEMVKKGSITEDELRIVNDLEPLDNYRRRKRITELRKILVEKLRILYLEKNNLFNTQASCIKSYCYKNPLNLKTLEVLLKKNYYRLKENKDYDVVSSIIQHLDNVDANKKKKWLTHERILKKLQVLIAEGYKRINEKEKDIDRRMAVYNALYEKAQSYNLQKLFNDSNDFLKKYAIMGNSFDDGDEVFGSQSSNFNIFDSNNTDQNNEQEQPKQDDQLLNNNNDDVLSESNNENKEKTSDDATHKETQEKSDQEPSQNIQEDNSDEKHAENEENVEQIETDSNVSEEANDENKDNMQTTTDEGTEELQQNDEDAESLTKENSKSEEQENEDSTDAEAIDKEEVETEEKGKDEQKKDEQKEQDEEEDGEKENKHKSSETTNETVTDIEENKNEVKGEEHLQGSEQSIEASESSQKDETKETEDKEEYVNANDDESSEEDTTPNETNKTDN

For assay [6], the target named is T3, P. falciparum RH5 (reticulocyte-binding protein homologue 5) (P. falciparum (3D7), UniProt Q8IFM5 25-526).
T3 sequence: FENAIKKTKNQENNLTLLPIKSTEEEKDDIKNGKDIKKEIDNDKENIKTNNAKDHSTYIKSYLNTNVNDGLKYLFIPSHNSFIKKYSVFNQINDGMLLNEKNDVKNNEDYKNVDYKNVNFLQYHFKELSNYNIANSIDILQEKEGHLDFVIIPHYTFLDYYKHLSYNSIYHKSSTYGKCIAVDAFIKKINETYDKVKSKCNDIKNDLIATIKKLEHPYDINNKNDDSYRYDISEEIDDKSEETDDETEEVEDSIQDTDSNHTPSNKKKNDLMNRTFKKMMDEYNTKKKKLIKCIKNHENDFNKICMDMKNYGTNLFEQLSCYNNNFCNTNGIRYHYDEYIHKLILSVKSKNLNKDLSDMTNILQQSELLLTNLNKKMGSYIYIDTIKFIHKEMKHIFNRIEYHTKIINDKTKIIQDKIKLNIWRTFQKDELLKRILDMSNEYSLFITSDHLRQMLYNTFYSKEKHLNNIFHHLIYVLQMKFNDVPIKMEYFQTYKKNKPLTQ

B1: chimpanzee basigin, entire ectodomain (receptor)
chain: ASGAAGTVFTTVEDLGSKILLTCYMNDSATEVTGHRWLKGGVVLEEDALPGQKTEFKVDSDDQWGEYSCVFLPEPMGTANIQLHGPPRVKAVKSSEHINEGETAVLVCKSESVPPVTDWAWYKITDSGDKALMNGSESRFFVSSLQGRSELHIENLNMEADPGQYRCNGNSSEGSDQAVITLRVRSHLA
modifications: enzymatically monobiotinylated
Broadly, the Kd is the concentration at which binding is half-saturated. A low value points to tighter binding. As for B1, the Kd in assay [1] turned out to be 4300 ± 500 nM; in assay [2], 2900 ± 100 nM.

B2: introgressed ancestral RH5 (reticulocyte-binding protein homologue 5) (ligand)
chain: FENAIKKTKNQENNLTLLPIKSTEEEKDDIKNGKDIKKEIDNDKENIKTNNAKDHSTYIKSYLNTNVNDGLKYLFIPSHNSFIKKYSVFNQINDGMLLNEKNDVKNNEDYKNVDYKNVNFLQYDFKELSNYNIANSIDILQEKEGHLDFVIIPHYTFLDYYKHLSYNSIYHKYSTHGKYIAVDAFIKKINERYDQVKSKCNDIKNDLIATIKKLEHPYDINNKNDDSYRYDISEEIDDKSEETDDETEEVEDSIQDTDSNHTPSNKKKNDLMNRTFKKMMDEYNTKKKKLIKCIKNHENDFNKICMDMKNYGTNLFEQLSCYNNNFCNTNGIRYHYDEYIHKLILSVKSKNLNKDLSDMTNILQQSELLLTNLNKKMGSYIYIDTIKFIHKEMKHIFNRIEYHTKIINDKTKIIQDKIKLNIWRTFQKDELLKRILDMSNEYSLFITSDHLRQMLYNTFYSKEKHLNNIFHHLIYVLQMKFNDVPIKMEYFQTYKKNKPLTQ
As for B2, the Kd in assay [3] worked out at 3000 ± 300 nM; in assay [4], 2300 ± 100 nM.

B3: P. falciparum RH5 (reticulocyte-binding protein homologue 5) (ligand)
chain: FENAIKKTKNQENNLTLLPIKSTEEEKDDIKNGKDIKKEIDNDKENIKTNNAKDHSTYIKSYLNTNVNDGLKYLFIPSHNSFIKKYSVFNQINDGMLLNEKNDVKNNEDYKNVDYKNVNFLQYHFKELSNYNIANSIDILQEKEGHLDFVIIPHYTFLDYYKHLSYNSIYHKSSTYGKCIAVDAFIKKINETYDKVKSKCNDIKNDLIATIKKLEHPYDINNKNDDSYRYDISEEIDDKSEETDDETEEVEDSIQDTDSNHTPSNKKKNDLMNRTFKKMMDEYNTKKKKLIKCIKNHENDFNKICMDMKNYGTNLFEQLSCYNNNFCNTNGIRYHYDEYIHKLILSVKSKNLNKDLSDMTNILQQSELLLTNLNKKMGSYIYIDTIKFIHKEMKHIFNRIEYHTKIINDKTKIIQDKIKLNIWRTFQKDELLKRILDMSNEYSLFITSDHLRQMLYNTFYSKEKHLNNIFHHLIYVLQMKFNDVPIKMEYFQTYKKNKPLTQ
As to B3, in assay [5], the binding result is reported as “binds”.
In assay [6], B4 registered a Kd of 1500 ± 200 nM.
